Experimental findings from patent publication US20230340027A1 (TECHNION RESEARCH AND DEVELOPMENT FOUNDATION, published 2023) are described below.

Positions of bridges follow the written chain, without caps; N, C: chain ends. code X = not defined here

The target of assay [1] is T1, biotin-tetra-UbK48 (UniProt P0CG48 1-76, Ub monomers linked to one another via Lys48 (K48); biotin tag (site not stated)).
T1 construct: Immobilised on streptavidin-coated 96-well plates (1 ug per well); one ubiquitin repeat is meant; also called biotin tagged tetra-UbK48
The assay is described as follows: direct fluorescence plate binding: biotin-tetra-UbK48 on a streptavidin plate, labeled peptide titrated, bound peptide released with 6 M Gn.HCl and read (ex 480 nm, em 525 nm); one-site fit.

Assay [2] has as its target T1, biotin-tetra-UbK48. Briefly: the filing's modified fluorescence assay, FITC-labelled peptide on tetra-UbK48 (FIGS. 1G and 26).
Description: (1i) A non-limiting schematic representation of the screening of various unlabeled peptides. (1A) An unlabeled cyclic peptide introduced for binding to the biotin-tetra Ub. (1B) A labeled cyclic peptide is introduced to compete with the binding of the unlabeled peptides to the biotin-tetra Ub followed by washing the unbounded peptides. (1C) The bound peptides are released using Guanidinium-HCl (Gn·HCl) and the fluorescence intensity is measured. (1ii) A non-limiting schematic representation for measuring the dissociation constant (Kd) of FITC-labeled peptide with different concentrations. (1D) A FITC-labeled cyclic peptide with different concentrations are introduced in different wells for binding to the biotin-tetra Ub. (1E) Washing out the unbounded labeled cyclic peptide. (1F) The bound peptides are released using Gn·HCl and the fluorescence intensity is measured. […] All measurements were performed in triplicates.
The inventors envisioned a screening strategy to proceed through four main steps, each terminated by washings with binding buffer. First, biotin tagged tetra-UbK48 was immobilized in a constant amount (1 μg per well) in streptavidin covered 96 well plate (FIG. 1(i and ii)). […] Finally, the bound peptides were released from wells by treatment with 6 M guanidine hydrochloride (Gn·HCl) solution followed by measuring the gained fluorescence (FIG. 1(i)).

B1: (Ub4_ix_S7C)2CH2-FITC (peptide)
peptide: {CH2CO}-WLYLDDCGDWWICG-{code X-C(fluorescein-5-maleimide)-NH2}
modifications: thioether N-13 (inferred); reading uncertain; also: dimer: Cys7 joined to Cys7 of second copy by -S-CH2-S-, residue 15 not given here
notes: Dimer of peptide 29, so each chain carries the label; also called FITC labeled stapled dimer 30; 30
What is called EC50 (read off the curve) is the concentration needed to bring the measured effect to its halfway point. The term Kd denotes the concentration at which binding is half-saturated. B1: the “EC50 (read off the curve)” value in assay [1] is roughly 10 nM. The molecule further showed a Kd in assay [2] of 12.3 nM.
